Results reported in patent publication US20200239573A1 (CRESCENDO BIOLOGICS, published 2020).
“And” between values parts separate entries of the source, which are not always exact repeats. Equal entries are not always repeated.

How the values were obtained:
[1] = biological target: T1, Strep tagged recombinant human PD-1 (human, UniProt Q15116 25-170, limits assumed); experiment: SPR Biacore T200, strep-tagged PD-1 amine-coupled, single cycle kinetics
T1 construct: the whole entry is named; also called strep tagged human PD-1; not shown: Strep tag
T1 sequence (Q15116 25-170 limits assumed): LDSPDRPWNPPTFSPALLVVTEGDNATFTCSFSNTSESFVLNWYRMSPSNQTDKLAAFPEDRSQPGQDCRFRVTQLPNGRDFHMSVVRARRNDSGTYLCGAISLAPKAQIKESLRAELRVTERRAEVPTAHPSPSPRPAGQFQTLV
Method: Single cycle kinetics assays were used to study the interaction between human PD-1 with Humabody® on a Biacore T200 instrument (GE Healthcare). Strep tagged recombinant human PD-1 was amine coupled to one flow cell of a CM-5 chip to create a low density surface (14 RU) using standard Biacore reagents. For the reference flow cell, a blank immobilisation was carried out. A five-point, three-fold dilution series of each Humabody® was made with a top concentration of 25 nM. The binding kinetics were followed by flowing the Humabody® over the chip surface in HBS EP+ buffer at a flow rate of 30 μl/min. The contact time for each of the association steps was 180 seconds and the dissociation step was 3300 seconds. The data was fitted to a 1:1 binding model after double reference subtraction using the Biacore T200 Evaluation software.

[2] = biological target: T2, recombinant human PD-1 Fc chimera (human, UniProt Q15116 25-167); experiment: SPR Biacore T200, PD-1-huFc amine-coupled, single cycle kinetics
T2 construct: Bought protein; also called human PD-1-huFc; huPD-1-Fc; not shown: human Fc
T2 sequence (Q15116 25-167 limits assumed, change not shown): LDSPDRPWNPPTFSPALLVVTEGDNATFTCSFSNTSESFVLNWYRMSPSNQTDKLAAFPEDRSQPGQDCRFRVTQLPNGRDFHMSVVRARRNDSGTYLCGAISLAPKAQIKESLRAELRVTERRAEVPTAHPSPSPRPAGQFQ
Method: Binding kinetics of certain VH single domain antibodies binding to human PD-1-huFc were measured by surface plasmon resonance (SPR) technology using Biacore T200 instrument (GE Healthcare). Recombinant human PD-1-huFc was immobilized by standard amine coupling to CM5 sensorschip (GE Healthcare) using in range of 0.1-0.01 mg/ml solution of antigen in 10 mM sodium acetate at pH 5.5. For the reference flow cell, a blank immobilisation was carried out. Single cycle kinetics assays were used to study the interaction, a five point, three-fold dilution series of each Humabody® was made with a top concentration of 30 nM. The binding kinetics were followed by flowing the Humabody® over the chip surface in HBS EP+ buffer at a flow rate of 30 μl/min. The contact time for each of the association steps was 180 seconds and the dissociation step was varied between 1200-3600 seconds. The data was fitted to a 1:1 binding model after double reference subtraction using the Biacore T200 Evaluation software.

[3] = biological target: T3, human PD-1 expressed on cells (CHO human PD-1 cells) (human, UniProt Q15116 21-288); experiment: cell-based or functional assay
T3 sequence (Q15116 21-288): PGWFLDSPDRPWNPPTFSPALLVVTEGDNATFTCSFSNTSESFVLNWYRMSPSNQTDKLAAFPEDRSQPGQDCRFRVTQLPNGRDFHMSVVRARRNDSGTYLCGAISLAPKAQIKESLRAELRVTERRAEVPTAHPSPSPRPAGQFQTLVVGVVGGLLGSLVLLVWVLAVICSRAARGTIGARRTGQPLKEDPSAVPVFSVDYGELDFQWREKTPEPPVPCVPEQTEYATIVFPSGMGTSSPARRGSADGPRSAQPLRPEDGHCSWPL

[4] = biological target: T3, human PD-1 expressed on cells (CHO …); experiment: FMAT epitope competition on CHO human PD-1 cells; competitor 1 nM 1.1-Strep
Method: For the epitope competition assay reagents were prepared in FMAT assay buffer. […] Plates were incubated for a minimum of 1.5 hours at room temperature then fluorescence measured in the FL2 (502 nm-537 nm) and FL5 (677-800 nm) channels on the Mirrorball plate reader (TTP) following excitation at 488 nm and 640 nm. Data was expressed as a % of the total binding control (i.e. % control) after subtraction of the background signal determined from the non-specific binding control wells.

Kd [2]	koff [2]	Reporter Assay EC50 [3] [nM]	kon [2]	Binder	also measured
–	–	26.1	–	Humabody® 1.72 (VHH) VHH: QVQLVESGGGLVKPGGSLRLSCAASGFTFSDSSMSWMRQAPGKGLEWVSYISSGGGVIFYADSVKGRFTISRDNAKNSLYLQMNSLRADDTAVYYCAREAPLRLGESPHDAFDISGQGTMVTVSS	–
–	–	29	–	Humabody® 1.70 (VHH) VHH: QVQLVESGGGLVKPGGSLRLSCAASGFTFGDSSMTWMRQAPGKGLEWVSYISSGGAVKFYTDSVKGRFTISRDNAKNSLYLQMNSLRADDTAVYYCAREAPLRLGESPHDAFDISGQGTMVTVSS	–
–	–	7.43	–	Humabody® 1.71 (VHH) VHH: QVQLVESGGGLVKPGGSLRLSCAASGFTFGGSSMTWMRQAPGKGLEWVSYISSGGGVKFYTDSVKGRFTISRDNAKNSLYLQMNSLRADDTAVYYCAREAPLRLGESPHDAFDISGQGTMVTVSS	–
–	–	12	–	Humabody® 1.67 (VHH) VHH: QVQLVESGGGLVKPGGSLRLSCAASGFTFSGSSMTWMRQAPGKGLEWVSYISSGGGVIFYADSVKGRFTISRDNAKNSLYLQMNSLRADDTAVYYCAREAPLRLGESPHDAFDISGQGTMVTVSS	–
–	–	35	–	Humabody® 1.69 (VHH) VHH: QVQLVESGGGLVKPGGSLRLSCAASGFTFSDNSMSWMRQAPGKGLEWVSYISSGGGVIFYADSVKGRFTISRDNAKNSLYLQMNSLRADDTAVYYCAREAPLRLGESPHDAFDISGQGTMVTVSS	–
0.0355 nM	1.53e-05 s⁻¹	–	432000 M⁻¹ s⁻¹	Humabody® 1.56 (VHH, human VH single domain antibody) VHH: QVQLVESGGGLVKPGGSLRLSCAASGFTFSDNSMTWMRQAPGKGLEWVSYISSGGAVKFYADSVKGRFTISRDNAKNSLYLQMNSLRADDTAVYYCAREAPLRLGESPHDAFDILGQGTMVTVSS	–
0.0856 nM	4.53e-05 s⁻¹	–	530000 M⁻¹ s⁻¹	Humabody® 1.54 (VHH, human VH single domain antibody) VHH: QVQLVESGGGLVKPGGSLRLSCAASGFTFSDDSMTWMRQAPGKGLEWVSYISSGGGVIFYADSVKGRFTISRDNAKNSLYLQMNSLRADDTAVYYCAREAPLRLGESPHDAFDIWGQGTMVTVSS	–
0.0364 nM	1.95e-05 s⁻¹	–	535000 M⁻¹ s⁻¹	Humabody® 1.55 (VHH, human VH single domain antibody) VHH: QVQLVESGGGLVKPGGSLRLSCAASGFTFSDNSMTWMRQAPGKGLEWVSYISSGGGVKFYADSVKGRFTISRDNAKNSLYLQMNSLRADDTAVYYCAREAPLRLGESPHDAFDISGQGTMVTVSS	–
–	–	14	–	Humabody® 1.53 (VHH, human VH single domain antibody) VHH: QVQLVESGGGLVKPGGSLRLSCAASGFTFSDNSMTWMRQAPGKGLEWVSYISSGGSVKFYADSVKGRFTISRDNAKNSLYLQMNSLRADDTAVYYCAREAPLRLGESPHDAFDIWGQGTMVTVSS	IC50 [4]: 5.4 nM

The remaining lines, values behind:

Binder	Kd [2]	koff [2]	Reporter Assay EC50 [3] [nM]	kon [2]	also measured
1.77-4GS-non-blocking VH (3) (bispecific antibody) EVQLVESGGGLVKPGGSLRLSCAASGFTFSDSSMTWMRQAPGKGLEWVSYISSGGGVKFYTDSVKGRFTISRDNAKNSLYLQMNSLRAEDTAVYYCAREAPLRLGESPHDAFDISGQGTMVTVSSGGGGSGGGGSGGGGSGGGGSEVQLVESGGGLVQPGRSLRLSCAASGFTFDDYAMHWVRQAPGKDLEWVSGISWNGGSMGYAASVKGRFTISRDNAKNSLYLQMNSLRAEDTALYYCVREKGPGLTGSTADYYGLDVWGQGTMVTVSS	–	–	–	–	Kd [1]: 0.063 nM; koff [1]: 3.5e-05 s⁻¹; kon [1]: 550000 M⁻¹ s⁻¹
Humabody® 1.41 (VHH, human VH single domain antibody) VHH: QVQLVESGGGLVKPGGSLRLSCAASGFTFSDNSMTWMRQAPGKGLEWVSYISSGGGVIFYADSVKGRFTISRDNAKNSLYLQMNSLRADDTAVYYCAREAPLRLGESPHDAFDIWGQGTMVTVSS	0.0552 nM	2.96e-05 s⁻¹	–	–	–
Humabody® 1.84 (VHH, human VH single domain antibody) VHH: EVQLVESGGGLVKPGGSLRLSCAASGFTFSDESMTWMRQAPGKGLEWVSYISSGGGVKFYTDSVKGRFTISRDNAKNSLYLQMNSLRAEDTAVYYCAREAPLRLGESPHDAFDISGQGTMVTVSS	–	–	–	–	Kd [1]: 0.091 nM; koff [1]: 7.6e-05 s⁻¹; kon [1]: 830000 M⁻¹ s⁻¹
Humabody® 1.104 (VHH, human VH single domain antibody) VHH: EVQLVESGGGLVKPGGSLRLSCAASGFTFSDESFTWMRQAPGKGLEWVSYISSGGGVKFYTDSVKGRFTISRDNAKNSLYLQMNSLRAEDTAVYYCAREAPLRLGESPHDAFDISGQGTMVTVSS	–	–	–	–	Kd [1]: 0.08 nM; koff [1]: 6.3e-05 s⁻¹; kon [1]: 780000 M⁻¹ s⁻¹
Humabody® 1.46 (VHH, human VH single domain antibody) VHH: QVQLVESGGGLVKPGGSLRLSCAASGFTFSDSSMSWMRQAPGKGLEWVSYISSGGGVIFYADSVKGRFTISRDNAKNSLYLQMNSLRADDTAVYYCAREAPLRLGESPHDAFDIWGQGTMVTVSS	–	–	45	–	IC50 [4]: 1.8 nM
Humabody® 1.49 (VHH, human VH single domain antibody) VHH: QVQLVESGGGLVKPGGSLRLSCAASGFTFSDSSMSWMRQAPGKGLEWVSYISTGGGVKFYADSVKGRFTISRDNAKNSLYLQMNSLRADDTAVYYCAREAPLRLGESPHDAFDIWGQGTMVTVSS	0.11 nM	2.89e-05 s⁻¹	–	263000 M⁻¹ s⁻¹	–
Humabody® 1.45 (VHH, human VH single domain antibody) VHH: QVQLVESGGGLVKPGGSLRLSCAASGFTFSDYSMSWMRQAPGKGLEWVSYISSGGGVIFYADSVKGRFTISRDNAKNSLYLQMNSLRADDTAVYYCAREAPLRLGESPHDAFDIWGQGTMVTVSS	–	–	74	–	IC50 [4]: 2.5 nM
Humabody® 1.47 (VHH, human VH single domain antibody) VHH: QVQLVESGGGLVKPGGSLRLSCAASGFTFSDNSMSWMRQAPGKGLEWVSYISSGGGVIFYADSVKGRFTISRDNAKNSLYLQMNSLRADDTAVYYCAREAPLRLGESPHDAFDIWGQGTMVTVSS	–	–	27	–	IC50 [4]: 4.4 nM
Humabody® 1.101 (VHH, human VH single domain antibody) VHH: EVQLVESGGGLVKPGGSLRLSCAASGFTFSDFSMTWMRQAPGKGLEWVSYISSGGGVKFYADSVKGRFTISRDNAKNSLYLQMNSLRAEDTAVYYCAREAPLRLGESPHDAFDISGQGTMVTVSS	–	–	–	–	IC50 [4]: 3 nM
Humabody® 1.105 (VHH, human VH single domain antibody) VHH: EVQLVESGGGLVKPGGSLRLSCAASGFTFSDESLTWMRQAPGKGLEWVSYISSGGGVKFYTDSVKGRFTISRDNAKNSLYLQMNSLRAEDTAVYYCAREAPLRLGESPHDAFDISGQGTMVTVSS	–	–	–	–	Kd [1]: 0.091 nM; koff [1]: 8.7e-05 s⁻¹; kon [1]: 950000 M⁻¹ s⁻¹
Humabody® 1.50 (VHH, human VH single domain antibody) VHH: QVQLVESGGGLVKPGGSLRLSCAASGFTFSDNSMTWMRQAPGKGLEWVSYISSGGTIKFYADSVKGRFTISRDNAKNSLYLQMNSLRADDTAVYYCAREAPLRLGESPHDAFDIWGQGTMVTVSS	0.0581 nM	2.34e-05 s⁻¹	–	402000 M⁻¹ s⁻¹	–
Humabody® 1.52 (VHH, human VH single domain antibody) VHH: QVQLVESGGGLVKPGGSLRLSCAASGFTFSDNSMTWMRQAPGKGLEWVSYISSGGGVKYYADSVKGRFTISRDNAKNSLYLQMNSLRADDTAVYYCAREAPLRLGESPHDAFDIWGQGTMVTVSS	0.299 nM and 0.256 nM	6.14e-05 s⁻¹ and 7.61e-05 s⁻¹	–	205000 M⁻¹ s⁻¹ and 297000 M⁻¹ s⁻¹	–
Humabody® 1.48 (VHH, human VH single domain antibody) VHH: QVQLVESGGGLVKPGGSLRLSCAASGFTFSDSSMTWMRQAPGKGLEWVSYISSGGGVKFYADSVKGRFTISRDNAKNSLYLQMNSLRADDTAVYYCAREAPLRLGESPHDAFDIWGQGTMVTVSS	0.106 nM	5.24e-05 s⁻¹	18	496000 M⁻¹ s⁻¹	–
Humabody® 1.94 (VHH, human VH single domain antibody) VHH: EVQLVESGGGLVKPGGSLRLSCAASGFTFSDWSMTWMRQAPGKGLEWVSYISSGGGVKFYADSVKGRFTISRDNAKNSLYLQMNSLRAEDTAVYYCAREAPLRLGESPHDAFDISGQGTMVTVSS	–	–	–	–	IC50 [4]: 4.2 nM
